From article PMC12535202, “N3A motifs in RIβ mediate allosteric crosstalk between cAMP and ATP in PKA activation” (Protein Science : A Publication of the Protein Society, 2025)

Biological target: the molecule itself
Experiment: non-reducing SDS-PAGE with Western blot; mouse tissue supernatants (70 μg), sample buffer without reducing agent, unboiled, 8% SDS-PAGE, blot probed with an RIβ-specific antibody

B1: RIβ from mouse brain tissue (natural protein, mouse (endogenous in mouse brain), UniProt P12849 1-381, looked up)
chain: MASPSCFHSEDEDSLKGCEMYVQKHGIQQVLKECIVHLCVAKPDRPLRFLREHFEKLEKEENRQILARQKSNSQCDSHDEEISPTPPNPVVKARRRRGGVSAEVYTEEDAVSYVRKVIPKDYKTMTALAKAISKNVLFSHLDDNERSDIFDAMFPVTHIGGETVIQQGNEGDNFYVIDQGEVDVYVNGEWVTNISEGGSFGELALIYGTPRAATVKAKTDLKLWGIDRDSYRRILMGSTLRKRKMYEEFLSKVSILESLEKWERLTVADALEPVQFEDGEKIVVQGEPGDDFYIITEGTASVLQRRSPNEEYVEVGRLGPSDYFGEIALLLNRPRAATVVARGPLKCVKLDRPRFERVLGPCSEILKRNIQRYNSFISLTV
modifications: disulfide bonded (dimer seen under non-reduced conditions)
notes: PKA regulatory subunit RIβ, endogenous in mouse brain, detected with an RIβ-specific antibody; source: endogenous, mouse brain homogenate (digitonin lysis buffer), supernatant
  stoichiometry N: 2
